# Assay results reported in patent US20250276075A1, “METHODS OF TREATING AXL-EXPRESSING CANCERS WITH ANTI-AXL ANTIBODIES, ANTIBODY FRAGMENTS AND THEIR IMMUNOCONJUGATES” (BIOATLA, INC., priority 2020, published 2025).
# B1: Mecbotamab vedotin (conjugate, chains of the INN, looked up)
# VH: EVQLVQSGAEVKKPGATVKISCKVSGYSFWGATMNWIRQPPGKGLEWIGLIKPSNGGTSYNQKFKGRVTISADKSISTAYLQWSSLKASDTAMYYCAHGHYESYEAMDYWGQGTLVTVSS
# VL: DIQMTQSPSSLSASVGDRVTITCKASQDVVSAVAWYQQKPGQAPRLLIYWQDTRHTGVPSRFSGSGSGTEFTLTISSLQPDDFATYYCQEHFSPPLTFGQGTKVEIK
# modifications: MC-vc-PAB-MMAE conjugate
# Experiment: Phase 1 clinical study of BA3011: safety (adverse events, DLT, MTD, RP2D)
# Format: in vivo, human
# Conditions: Phase 1
# From the text: MTD evaluation will be based on the DLT-evaluable Population. The DLT-evaluable Population includes all patients enrolled in Phase 1 dose escalation who receive at least 1 full assigned dose of BA3011 and complete the safety follow-up through the DLT-evaluation period (defined as the time period from the first dose of BA3011 through 21 days post Dose 1) or experience any DLT during the DLT-evaluation period. Non-DLT-evaluable patients will be replaced. The safety evaluation will be based on the As-Treated Population. Adverse events (AEs) will be coded by Medical Dictionary for Regulatory Activities (MedDRA) and graded according to the NCI CTCAE v4.03, and the type, incidence, severity, and relationship to each IP will be summarized. If any associations of interest between AEs and baseline characteristics are observed, additional stratified results may be presented. All treatment-emergent AEs will be summarized by MedDRA system organ class and preferred term. Laboratory abnormalities with toxicity grades according to the NCI CTCAE will be summarized.
# A DLT is defined as meeting 1 of the following criteria during the 21-day DLT evaluation period or a treatment-related toxicity of any grade requiring dose delay of 1 week or more between the first and second cycles: • Non-hematologic Toxicity • For non-hematologic toxicities, DLT will be defined as any National Cancer Institute (NCI) Common Terminology Criteria for Adverse Events (CTCAE) v4.03 (published 14 Jun. 2010) Grade 3 or greater toxicity at least possibly related to treatment, except for: • Grade 3 fatigue. • Grade 3 nausea and vomiting lasting less than 24 hours. • Grade 3 non-hematologic laboratory abnormalities that are asymptomatic and resolve to Grade 1 or baseline (if the patient entered the study with existing toxicity) within 14 days. • Grade 3 or 4 allergic or hypersensitivity reaction at first occurrence in the absence of prophylactic steroid that resolves in less than 6 hours with appropriate clinical intervention
# • DLT for hematologic toxicity, using NCI CTCAE v4.03, will be defined as: • Grade 4 neutropenia lasting greater than 7 days. • Grade 3 or 4 febrile neutropenia. • Grade 4 platelet count (<25,000/mm3) at any time.
# Study BA3011-001 was an ongoing, multi-center, open-label, Phase 1/2 first-in-human trial of BA3011.
# In Phase 1 (NCT03425279), BA3011 was administered once (Q3W) or twice (2Q3W) every 3 weeks via intravenous (IV) infusion.
# [1] = 0.3 mg/kg Q3W, 1 sarcoma patient
# [2] = 1.2 mg/kg 2Q3W, 2 sarcoma patients
# [3] = 1.8 mg/kg 2Q3W, 19 sarcoma patients
# [4] = 1.8 mg/kg Q3W, 2 sarcoma patients
# [5] = 2.4 mg/kg Q3W, 2 sarcoma patients
# [6] = All TEAEs, All Grades, sarcoma patients
molecule,measurement,setting,value
B1,"Any TEAE, % of patients",[1],100.0%
same,"Any TEAE, no. of patients",[1],1
same,"Any related serious TEAE, no. of patients",[1],0
same,"Any serious TEAE, no. of patients",[1],0
same,"Related TEAE leading to treatment discontinuation, no. of patients",[1],0
same,"Related TEAEs with CTCAE grade 3 or 4, no. of patients",[1],0
same,"TEAE leading to treatment discontinuation, no. of patients",[1],0
same,"TEAE with CTCAE grade 3 or 4, no. of patients",[1],0
same,"TEAEs leading to death, no. of patients",[1],0
same,"Any TEAE, % of patients",[2],100.0%
same,"Any TEAE, no. of patients",[2],2
same,"Any related serious TEAE, no. of patients",[2],0
same,"Any serious TEAE, no. of patients",[2],0
same,"Related TEAE leading to treatment discontinuation, no. of patients",[2],0
same,"Related TEAEs with CTCAE grade 3 or 4, no. of patients",[2],0
same,"TEAE leading to treatment discontinuation, no. of patients",[2],0
same,"TEAE with CTCAE grade 3 or 4, % of patients",[2],100.0%
same,"TEAE with CTCAE grade 3 or 4, no. of patients",[2],2
same,"TEAEs leading to death, no. of patients",[2],0
same,"Any TEAE, % of patients",[3],(100.0%)
same,"Any TEAE, no. of patients",[3],19
same,"Any related serious TEAE, % of patients",[3],(5.3%)
same,"Any serious TEAE, % of patients",[3],(36.8%)
same,"Any serious TEAE, no. of patients",[3],7
same,"Related TEAE leading to treatment discontinuation, % of patients",[3],(10.5%)
same,"Related TEAEs with CTCAE grade 3 or 4, % of patients",[3],(57.9%)
same,"Related TEAEs with CTCAE grade 3 or 4, no. of patients",[3],11
same,"TEAE leading to treatment discontinuation, % of patients",[3],(10.5%)
same,"TEAE leading to treatment discontinuation, no. of patients",[3],2
same,"TEAE with CTCAE grade 3 or 4, % of patients",[3],(68.4%)
same,"TEAE with CTCAE grade 3 or 4, no. of patients",[3],13
same,"TEAEs leading to death, no. of patients",[3],0
same,"Any related serious TEAE, no. of patients","1.8 mg/kg 2Q3W, 19 sarcoma patients, hepatic encephalopathy, CTCAE grade 2",1
same,"Related TEAE leading to treatment discontinuation, no. of patients","1.8 mg/kg 2Q3W, 19 sarcoma patients, neuropathy peripheral grade 2, fatigue grade 3",2
same,"Any TEAE, % of patients",[4],(100.0%)
same,"Any TEAE, no. of patients",[4],2
same,"Any related serious TEAE, no. of patients",[4],0
same,"Any serious TEAE, % of patients",[4],(50.0%)
same,"Any serious TEAE, no. of patients",[4],1
same,"Related TEAE leading to treatment discontinuation, no. of patients",[4],0
same,"Related TEAEs with CTCAE grade 3 or 4, no. of patients",[4],0
same,"TEAE leading to treatment discontinuation, no. of patients",[4],0
same,"TEAE with CTCAE grade 3 or 4, % of patients",[4],(50.0%)
same,"TEAE with CTCAE grade 3 or 4, no. of patients",[4],1
same,"TEAEs leading to death, no. of patients",[4],0
same,"Any TEAE, % of patients",[5],(100.0%)
same,"Any TEAE, no. of patients",[5],2
same,"Any related serious TEAE, no. of patients",[5],0
same,"Any serious TEAE, % of patients",[5],(50.0%)
same,"Any serious TEAE, no. of patients",[5],1
same,"Related TEAE leading to treatment discontinuation, no. of patients",[5],0
same,"Related TEAEs with CTCAE grade 3 or 4, % of patients",[5],(50.0%)
same,"Related TEAEs with CTCAE grade 3 or 4, no. of patients",[5],1
same,"TEAE leading to treatment discontinuation, no. of patients",[5],0
same,"TEAE with CTCAE grade 3 or 4, % of patients",[5],(50.0%)
same,"TEAE with CTCAE grade 3 or 4, no. of patients",[5],1
same,"TEAEs leading to death, no. of patients",[5],0
same,"Alanine aminotransferase increased, %",[6],(46.2) %
same,"Alopecia, %",[6],(23.9) %
same,"Anemia, %",[6],(15.4) %
same,"Arthralgia, %",[6],(23.9) %
same,"Aspartate aminotransferase increased, %",[6],(42.3) %
same,"Blood alkaline phosphatase increased, %",[6],(23.9) %
same,"Blood bilirubin increased, %",[6],(3.8) %
same,"Bone pain, %",[6],(26.9) %
same,"Constipation, %",[6],(26.9) %
same,"Decreased appetite, %",[6],(23.9) %
same,"Diarrhea, %",[6],(26.9) %
same,"Fatigue, %",[6],(61.5) %
same,"Hypokalemia, %",[6],(15.4) %
same,"Hyponatremia, %",[6],(11.5) %
same,"Lymphocyte count decreased, %",[6],(7.7) %
same,"Nausea, %",[6],(58.3) %
same,"Neutrophil count decreased, %",[6],(26.9) %
same,"Patients with at least one TEAE, %",[6],(100.0) %
same,"Peripheral neuropathy, %",[6],(15.4) %
